Results published in patent US20050208611A1, “Process for identifying compounds with fungicide activity based on UMP/CMP kinases from fungi” (priority 2003, published 2005).

Tests used:
[1] = system: O=c1ccn([C@@H]2O[C@H](COP(=O)(O)O)[C@@H](O)[C@H]2O)c(=O)[nH]1; assay: purified protein, by the assay type; details: other: substrate Km of the recombinant UMP/CMP kinase from U. maydis, Lineweaver-Burk plot (FIG. 4A/4B)
[2] = system: Nc1ncnc2c1ncn2[C@@H]1O[C@H](COP(=O)(O)OP(=O)(O)OP(=O)(O)O)[C@@H](O)[C@H]1O; assay: purified protein, by the assay type; details: other: substrate Km of the recombinant UMP/CMP kinase from U. maydis, Lineweaver-Burk plot (FIG. 4A/4B)
Method: The ADP produced in the reaction is measured by the coupled reaction with pyruvate kinase and lactate dehydrogenase. Here the pyruvate produced in the reaction of the pyruvate kinase is converted to lactate by the lactate dehydrogenase with the use of NADH.
The activity and/or decrease or increase in activity of the inventive polypeptide can therefore occur by coupling this reaction with the enzymatic conversion of the ADP by the pyruvate kinase and the subsequent enzymatic conversion by the lactate dehydrogenase of the pyruvate produced. This makes use of the fact that the pyruvate produced in the reaction of the pyruvate kinase is converted to lactate by the lactate dehydrogenase (LDH) with the consumption of NADH.
The co-substrate NADH consumed in the reaction of the LDH has an extinction maximum at 340 nm.

## UMP/CMP kinase from Ustilago maydis (Mycosarcoma maydis)
[1]
  Km: 120 µM
[2]
  Km: 60 µM
